Key:
[1] = biological target: T1, SARS-CoV-2 spike receptor-binding domain (RBD) (SARS-CoV-2, UniProt P0DTC2, biotin (biotinylated RBD in the BLI experiments only)); assay: BLI
[2] = biological target: T1, SARS-CoV-2 spike receptor-binding …; assay: bead-based multiplex ACE2 competition assay

B1: nanobody NM1230 (VHH)
VHH: QVQLVESGGGLVRPGGSLRLSCVGSGFTFSGYAMNWYRQAPGKALELVAGISNAGDLTHYEEPMKGRVAISRANDKNTVYLQMDDLKPEDTAVYRCHAPGVRVGTGERKDVWGQGAQVTVSS
B1 gave a Kd [1] of 8.23 nM and an IC50 [2] of 2.12 nM.

— article doi:10.1101/2020.09.22.308338 (bioRxiv, 2020)
